Consider 14 variants from IntAct's records for PubMed 31515488.

B1: Forkhead box protein P3 (Homo sapiens), Q9BZS1 (parent)
chain: MPNPRPGKPSAPSLALGPSPGASPSWRAAPKASDLLGARGPGGTFQGRDLRGGAHASSSSLNPMPPSQLQLPTLPLVMVAPSGARLGPLPHLQALLQDRPHFMHQLSTVDAHARTPVLQVHPLESPAMISLTPPTTATGVFSLKARPGLPPGINVASLEWVSREPALLCTFPNPSAPRKDSTLSAVPQSSYPLLANGVCKWPGCEKVFEEPEDFLKHCQADHLLDEKGRAQCLLQREMVQSLEQQLVLEKEKLSAMQAHLAGKMALTKASSVASSDKGSCCIVAAGSQGPVVPAWSGPREAPDSLFAVRRHLWGSHGNSTFPEFLHNMDYFKFHNMRPPFTYATLIRWAILEAPEKQRTLNEIYHWFTRMFAFFRNHPATWKNAIRHNLSLHKCFVRVESEKGAVWTVDELEFRKKRSQRPSRCSNPTPGP
B2: NIF3-like protein 1 (Homo sapiens), Q9GZT8 (parent)
chain: MLSSCVRPVPTTVRFVDSLICNSSRSFMDLKALLSSLNDFASLSFAESWDNVGLLVEPSPPHTVNTLFLTNDLTEEVMEEVLQKKADLILSYHPPIFRPMKRITWNTWKERLVIRALENRVGIYSPHTAYDAAPQGVNNWLAKGLGACTSRPIHPSKAPNYPTEGNHRVEFNVNYTQDLDKVMSAVKGIDGVSVTSFSARTGNEEQTRINLNCTQKALMQVVDFLSRNKQLYQKTEILSLEKPLLLHTGMGRLCTLDESVSLATMIDRIKRHLKLSHIRLALGVGRTLESQVKVVALCAGSGSSVLQGVEADLYLTGEMSHHDTLDAASQGINVILCEHSNTERGFLSDLRDMLDSHLENKINIILSETDRDPLQVV
partner: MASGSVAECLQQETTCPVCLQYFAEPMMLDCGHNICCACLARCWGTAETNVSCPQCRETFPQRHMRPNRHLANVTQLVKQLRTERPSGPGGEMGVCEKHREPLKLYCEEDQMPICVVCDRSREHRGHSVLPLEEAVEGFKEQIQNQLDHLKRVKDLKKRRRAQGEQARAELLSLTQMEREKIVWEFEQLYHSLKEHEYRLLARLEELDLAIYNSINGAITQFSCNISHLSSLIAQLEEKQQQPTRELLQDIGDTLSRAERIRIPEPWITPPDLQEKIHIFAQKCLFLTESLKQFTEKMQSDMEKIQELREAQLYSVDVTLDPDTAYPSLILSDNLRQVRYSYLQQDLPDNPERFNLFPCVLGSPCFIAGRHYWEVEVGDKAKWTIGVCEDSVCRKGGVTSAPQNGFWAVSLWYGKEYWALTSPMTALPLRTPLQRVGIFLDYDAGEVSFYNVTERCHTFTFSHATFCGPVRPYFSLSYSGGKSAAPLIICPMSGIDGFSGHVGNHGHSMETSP
B3: Uncharacterized protein C3orf62 (Homo sapiens), Q6ZUJ4 (parent)
chain: MHYIKTWSLLGEMSEKLRRCRKELTAAIDRAFEGVSYSQECTGQQRLELSAAPLSFSLPVHRLLCRRHPLAACSSAAPFAAVPCAPENENPAFATNHAPVNAKPHALCPERKPLTSKENVLMHSSILAPERESWRTAGEGENWRKENLRKDMERDLKADSNMPLNNSSQEVTKDLLDMIDHTSIRTIEELAGKIEFENELNHMCGHCQDSPFKEEAWALLMDKSPQKATDADPGSLKQAFDDHNIVETVLDLEEDYNVMTSFKYQIE
B4: G1/S-specific cyclin-D3 (Homo sapiens), P30281 (parent)
chain: MELLCCEGTRHAPRAGPDPRLLGDQRVLQSLLRLEERYVPRASYFQCVQREIKPHMRKMLAYWMLEVCEEQRCEEEVFPLAMNYLDRYLSCVPTRKAQLQLLGAVCMLLASKLRETTPLTIEKLCIYTDHAVSPRQLRDWEVLVLGKLKWDLAAVIAHDFLAFILHRLSLPRDRQALVKKHAQTFLALCATDYTFAMYPPSMIATGSIGAAVQGLGACSMSGDELTELLAGITGTEVDCLRACQEQIEAALRESLREASQTSSSPAPKAPRGSSSQGPSQTSTPTDVTAIHL
B5: Segment polarity protein dishevelled homolog DVL-2 (Homo sapiens), O14641 (parent)
chain: MAGSSTGGGGVGETKVIYHLDEEETPYLVKIPVPAERITLGDFKSVLQRPAGAKYFFKSMDQDFGVVKEEISDDNARLPCFNGRVVSWLVSSDNPQPEMAPPVHEPRAELAPPAPPLPPLPPERTSGIGDSRPPSFHPNVSSSHENLEPETETESVVSLRRERPRRRDSSEHGAGGHRTGGPSRLERHLAGYESSSTLMTSELESTSLGDSDEEDTMSRFSSSTEQSSASRLLKRHRRRRKQRPPRLERTSSFSSVTDSTMSLNIITVTLNMEKYNFLGISIVGQSNERGDGGIYIGSIMKGGAVAADGRIEPGDMLLQVNDMNFENMSNDDAVRVLRDIVHKPGPIVLTVAKCWDPSPQAYFTLPRNEPIQPIDPAAWVSHSAALTGTFPAYPGSSSMSTITSGSSLPDGCEGRGLSVHTDMASVTKAMAAPESGLEVRDRMWLKITIPNAFLGSDVVDWLYHHVEGFPERREARKYASGLLKAGLIRHTVNKITFSEQCYYVFGDLSGGCESYLVNLSLNDNDGSSGASDQDTLAPLPGATPWPLLPTFSYQYPAPHPYSPQPPPYHELSSYTYGGGSASSQHSEGSRSSGSTRSDGGAGRTGRPEERAPESKSGSGSESEPSSRGGSLRRGGEASGTSDGGPPPSRGSTGGAPNLRAHPGLHPYGPPPGMALPYNPMMVVMMPPPPPPVPPAVQPPGAPPVRDLGSVPPELTASRQSFHMAMGNPSEFFVDVM
B6: Protein FAM9B (Homo sapiens), Q8IZU0 (parent)
chain: MAAWGKKHAGKDPVRDECEERNRFTETREEDVTDEHGEREPFAETDEHTGANTKKPEDTAEDLTAKRKRMKMDKTCSKTKNKSKHALRKKQLKRQKRDYIHSLKLLNVLEEYITDEQKEEEEEEGEEEELIRIFQEQQKKWQQYRSVRRERLKEMKLLRDQFVKALEDFEDLCDRVFSDEDSELDN
partner: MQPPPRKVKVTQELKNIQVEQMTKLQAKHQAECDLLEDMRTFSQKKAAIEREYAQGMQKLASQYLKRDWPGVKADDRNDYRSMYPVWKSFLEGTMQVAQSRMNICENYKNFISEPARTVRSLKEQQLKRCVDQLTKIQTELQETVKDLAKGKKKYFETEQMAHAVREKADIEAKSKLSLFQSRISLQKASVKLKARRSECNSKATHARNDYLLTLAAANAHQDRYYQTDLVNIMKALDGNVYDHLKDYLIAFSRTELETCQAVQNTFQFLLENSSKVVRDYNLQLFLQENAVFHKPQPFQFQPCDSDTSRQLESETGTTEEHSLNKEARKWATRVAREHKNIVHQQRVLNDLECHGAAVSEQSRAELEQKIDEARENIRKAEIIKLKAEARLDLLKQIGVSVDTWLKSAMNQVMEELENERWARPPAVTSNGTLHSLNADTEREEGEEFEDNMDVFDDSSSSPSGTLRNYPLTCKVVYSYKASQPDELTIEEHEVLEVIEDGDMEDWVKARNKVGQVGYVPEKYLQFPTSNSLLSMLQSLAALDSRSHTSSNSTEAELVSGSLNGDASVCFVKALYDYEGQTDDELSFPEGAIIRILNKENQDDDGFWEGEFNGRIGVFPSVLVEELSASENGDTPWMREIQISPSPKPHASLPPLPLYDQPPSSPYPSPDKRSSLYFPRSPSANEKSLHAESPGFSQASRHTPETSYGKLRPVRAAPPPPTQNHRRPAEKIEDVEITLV

In the first assay the parent is B1. The following applies: with pr20e_human PRR20E.
Regarding S59C, the “effect of a mutation on the interaction” value is reported as “with no effect”.

A further assay covers variants of B1. The following applies: with rbpms_human RBPMS.
For the variant S59C, the “effect of a mutation on the interaction” value is recorded as “with no effect”.

The variants in another assay derive from B2. The note with it: with tri27_human TRIM27, P14373.
Turning to T324I, the “effect of a mutation on the interaction” value is listed as “disrupting interaction strength”.

In another assay the parent is B3. The note with it: with mr1l1_human MRFAP1L1, Q96HT8.
Sequence of mr1l1_human MRFAP1L1, Q96HT8 (Q96HT8 whole entry): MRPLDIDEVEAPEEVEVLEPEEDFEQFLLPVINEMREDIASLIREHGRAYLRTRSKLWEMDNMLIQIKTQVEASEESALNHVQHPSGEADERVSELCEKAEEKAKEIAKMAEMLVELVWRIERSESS
For N142D, the “effect of a mutation on the interaction” value is on record as “with no effect”. The same measure, in the same setting: under V60M stands “with no effect”; under E110K, “with no effect”; under M203I, “with no effect”.

Another assay covers variants of B4. The note with it: with cdk4_human CDK4, P11802.
With A266V, the “effect of a mutation on the interaction” value is given as “with no effect”. Same read-out and setting: next, P134S: “with no effect”; S259A: “with no effect”.

In a further assay the parent is B4. The following applies: with cdk6_human CDK6, Q00534.
Sequence of cdk6_human CDK6, Q00534 (Q00534 whole entry): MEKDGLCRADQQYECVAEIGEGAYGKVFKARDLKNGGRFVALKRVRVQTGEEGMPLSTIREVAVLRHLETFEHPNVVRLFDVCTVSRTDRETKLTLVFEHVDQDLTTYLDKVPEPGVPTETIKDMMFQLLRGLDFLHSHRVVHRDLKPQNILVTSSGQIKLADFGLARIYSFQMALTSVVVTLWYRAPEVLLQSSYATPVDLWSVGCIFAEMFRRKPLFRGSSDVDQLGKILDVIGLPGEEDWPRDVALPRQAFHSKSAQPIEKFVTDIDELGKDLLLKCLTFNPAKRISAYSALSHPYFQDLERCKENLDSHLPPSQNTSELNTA
For A266V, the “effect of a mutation on the interaction” value is on record as “with no effect”. Same read-out and setting: next, E253D: “with no effect”; P134S: “with no effect”.

The variants in the next assay derive from B4. The following applies: with cdn1a_human CDKN1A.
Consider E253D, for which the “effect of a mutation on the interaction” value is given as “with no effect”.

In a further assay the parent is B4. The following applies: with tfp11_human TFIP11, Q9UBB9.
Sequence of tfp11_human TFIP11, Q9UBB9 (Q9UBB9 whole entry): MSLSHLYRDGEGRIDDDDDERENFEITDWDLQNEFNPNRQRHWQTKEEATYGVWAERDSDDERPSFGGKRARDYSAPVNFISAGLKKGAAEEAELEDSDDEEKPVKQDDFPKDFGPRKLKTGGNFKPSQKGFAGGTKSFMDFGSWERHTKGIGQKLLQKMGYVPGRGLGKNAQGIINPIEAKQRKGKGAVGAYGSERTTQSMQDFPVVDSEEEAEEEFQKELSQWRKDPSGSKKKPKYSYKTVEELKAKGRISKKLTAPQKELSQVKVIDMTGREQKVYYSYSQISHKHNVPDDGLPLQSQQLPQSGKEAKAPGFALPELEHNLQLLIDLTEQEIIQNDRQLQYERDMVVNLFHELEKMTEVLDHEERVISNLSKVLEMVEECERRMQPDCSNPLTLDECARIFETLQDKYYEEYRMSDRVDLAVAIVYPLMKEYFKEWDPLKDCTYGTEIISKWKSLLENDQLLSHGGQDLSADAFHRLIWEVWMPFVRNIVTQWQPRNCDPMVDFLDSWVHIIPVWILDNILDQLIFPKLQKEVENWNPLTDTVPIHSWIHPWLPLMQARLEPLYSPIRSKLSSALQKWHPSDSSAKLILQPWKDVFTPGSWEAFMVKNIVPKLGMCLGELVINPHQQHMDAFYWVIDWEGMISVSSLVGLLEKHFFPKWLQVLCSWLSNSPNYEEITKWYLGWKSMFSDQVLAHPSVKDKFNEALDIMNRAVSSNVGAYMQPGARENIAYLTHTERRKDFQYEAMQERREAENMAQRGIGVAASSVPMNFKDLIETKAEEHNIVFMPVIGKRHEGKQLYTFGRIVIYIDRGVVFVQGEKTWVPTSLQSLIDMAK
For S259A, the “effect of a mutation on the interaction” value is “with no effect”.

The variants in the next assay derive from B5. The note with it: with traf2_human TRAF2, Q12933.
Sequence of traf2_human TRAF2, Q12933 (Q12933 whole entry): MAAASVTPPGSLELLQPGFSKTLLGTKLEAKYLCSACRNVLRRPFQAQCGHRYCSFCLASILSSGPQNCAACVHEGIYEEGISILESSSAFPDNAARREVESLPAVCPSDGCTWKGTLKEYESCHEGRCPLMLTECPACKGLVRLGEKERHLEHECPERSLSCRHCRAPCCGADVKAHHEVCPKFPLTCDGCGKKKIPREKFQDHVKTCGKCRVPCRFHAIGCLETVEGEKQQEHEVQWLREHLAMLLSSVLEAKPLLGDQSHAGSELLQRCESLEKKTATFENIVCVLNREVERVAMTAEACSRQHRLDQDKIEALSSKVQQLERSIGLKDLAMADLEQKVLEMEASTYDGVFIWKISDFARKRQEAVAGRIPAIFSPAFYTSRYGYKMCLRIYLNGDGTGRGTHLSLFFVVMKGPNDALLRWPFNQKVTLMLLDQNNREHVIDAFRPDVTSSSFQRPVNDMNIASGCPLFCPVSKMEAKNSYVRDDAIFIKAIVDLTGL
For R415Q, the “effect of a mutation on the interaction” value is “with no effect”.

The next assay covers variants of B5. The note with it: with ap2m1_human AP2M1, Q96CW1.
Sequence of ap2m1_human AP2M1, Q96CW1 (Q96CW1 whole entry): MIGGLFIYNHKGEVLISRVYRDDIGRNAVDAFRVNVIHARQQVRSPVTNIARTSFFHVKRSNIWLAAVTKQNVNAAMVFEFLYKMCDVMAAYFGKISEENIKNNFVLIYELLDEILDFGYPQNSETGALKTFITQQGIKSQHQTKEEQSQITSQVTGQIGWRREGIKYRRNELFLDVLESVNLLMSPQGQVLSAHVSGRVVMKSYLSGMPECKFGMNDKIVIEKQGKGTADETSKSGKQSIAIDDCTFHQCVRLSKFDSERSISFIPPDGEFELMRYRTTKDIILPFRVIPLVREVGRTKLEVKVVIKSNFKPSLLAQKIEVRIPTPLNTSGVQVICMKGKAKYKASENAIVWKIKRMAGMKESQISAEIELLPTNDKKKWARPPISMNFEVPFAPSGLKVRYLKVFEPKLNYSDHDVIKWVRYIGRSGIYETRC
With R415Q, the “effect of a mutation on the interaction” value was “with no effect”.

Variants of B5 are the subject of the next assay. The following applies: with thap1_human THAP1, Q9NVV9.
Sequence of thap1_human THAP1, Q9NVV9 (Q9NVV9 whole entry): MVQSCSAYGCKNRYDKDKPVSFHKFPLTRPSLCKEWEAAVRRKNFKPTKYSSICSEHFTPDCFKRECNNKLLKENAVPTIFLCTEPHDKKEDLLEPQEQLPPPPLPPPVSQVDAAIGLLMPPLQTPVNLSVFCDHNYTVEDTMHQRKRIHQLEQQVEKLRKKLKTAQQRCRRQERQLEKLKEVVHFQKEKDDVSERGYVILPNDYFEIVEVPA
In the case of A53V, the “effect of a mutation on the interaction” value was “with no effect”.

As to T535I, the “effect of a mutation on the interaction” value is given as “with no effect”.

In another assay the parent is B5. The following applies: with kc1e_human CSNK1E.
A53V: the “effect of a mutation on the interaction” value is given as “with no effect”. The same measure, in the same setting: next, T535I: “with no effect”.

Variants of B6 are the subject of a further assay. The note with it: with fcsd2_human FCHSD2, O94868.
Turning to R23H, the “effect of a mutation on the interaction” value is recorded as “with no effect”.
